Paper PMC13071878 (2026)

Molecular target: human angiotensin-converting enzyme 2, extracellular catalytic domain, produced in mammalian cells … (human, UniProt Q9BYF1 19-615)
Experiment: FACS

Sequence of human angiotensin-converting enzyme 2, extracellular catalytic domain, produced in mammalian cells … (Q9BYF1 19-615): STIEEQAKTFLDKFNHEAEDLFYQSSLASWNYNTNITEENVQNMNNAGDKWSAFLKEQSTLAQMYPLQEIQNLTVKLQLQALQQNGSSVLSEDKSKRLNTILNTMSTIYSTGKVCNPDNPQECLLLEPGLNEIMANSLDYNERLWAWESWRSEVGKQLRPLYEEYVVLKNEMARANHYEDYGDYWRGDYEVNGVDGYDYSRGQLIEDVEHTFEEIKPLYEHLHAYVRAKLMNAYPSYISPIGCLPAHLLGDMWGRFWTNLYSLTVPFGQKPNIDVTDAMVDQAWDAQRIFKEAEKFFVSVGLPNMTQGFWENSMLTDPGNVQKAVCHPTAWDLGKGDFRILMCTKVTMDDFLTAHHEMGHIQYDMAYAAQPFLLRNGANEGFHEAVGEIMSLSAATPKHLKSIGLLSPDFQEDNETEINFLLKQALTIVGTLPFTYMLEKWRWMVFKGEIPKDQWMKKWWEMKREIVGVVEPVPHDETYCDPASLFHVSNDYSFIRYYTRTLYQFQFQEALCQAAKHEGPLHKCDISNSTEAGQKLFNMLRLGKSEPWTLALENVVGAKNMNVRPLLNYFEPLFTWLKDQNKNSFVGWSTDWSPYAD

ACEPLGYALFLCSG [GR1.9 (N8A), yeast-displayed alanine mutant of GR1.4]
Kd: > 1000 nM
